# From the supplement of paper PMC9112550, “Optimization of the antimicrobial peptide Bac7 by deep mutational scanning” (BMC Biology, 2022)
# Tested on: Escherichia coli TOP10
# Experiment: shrunken log2 fold change of peptide-encoding DNA abundance (4.5 h post-induction vs induction); higher = less antimicrobial activity (less host growth inhibition)
# Details: time post-induction: 4.5 h; library: site-saturation at positions 5, 18, 19, 20
# 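Further: peptides expressed intracellularly from a pBAD plasmid library in pooled LB shake-flask culture, induced with 0.3% L-arabinose, DNA abundance read by NGS, three biological replicates, DESeq2 with apeglm shrinkage.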
row,Sequence,shrunken log2 fold change
1,RRIRCRPPRLPRPRPRPNDPPRP,0.0328
2,RRIRCRPPRLPRPRPRPNDSPRP,-0.221
3,RRIRCRPPRLPRPRPRPNFMPRP,-0.448
4,RRIRCRPPRLPRPRPRPNGDPRP,0.105
5,RRIRCRPPRLPRPRPRPNGLPRP,-0.132
6,RRIRCRPPRLPRPRPRPNHVPRP,-0.248
7,RRIRCRPPRLPRPRPRPNITPRP,-0.884
8,RRIRCRPPRLPRPRPRPNKIPRP,-0.461
9,RRIRCRPPRLPRPRPRPNKLPRP,-0.283
10,RRIRCRPPRLPRPRPRPNKQPRP,-0.201
11,RRIRCRPPRLPRPRPRPNLEPRP,-0.267
12,RRIRCRPPRLPRPRPRPNMQPRP,-0.423
13,RRIRCRPPRLPRPRPRPNMVPRP,0.0392
14,RRIRCRPPRLPRPRPRPNNHPRP,-0.731
15,RRIRCRPPRLPRPRPRPNNLPRP,-0.765
16,RRIRCRPPRLPRPRPRPNPAPRP,0.101
17,RRIRCRPPRLPRPRPRPNPTPRP,0.211
18,RRIRCRPPRLPRPRPRPNPVPRP,-0.209
19,RRIRCRPPRLPRPRPRPNSCPRP,-0.394
20,RRIRCRPPRLPRPRPRPNSIPRP,-0.314
21,RRIRCRPPRLPRPRPRPNVVPRP,0.0385
22,RRIRCRPPRLPRPRPRPNWCPRP,-0.0555
23,RRIRCRPPRLPRPRPRPNWDPRP,-0.185
24,RRIRCRPPRLPRPRPRPNWNPRP,-0.514
25,RRIRCRPPRLPRPRPRPNYSPRP,-0.522

row,Sequence,shrunken log2 fold change
1,RRIRCRPPRLPRPRPRPPAGPRP,0.79
2,RRIRCRPPRLPRPRPRPPCRPRP,0.609
3,RRIRCRPPRLPRPRPRPPDIPRP,0.409
4,RRIRCRPPRLPRPRPRPPEEPRP,0.301
5,RRIRCRPPRLPRPRPRPPEIPRP,0.0794
6,RRIRCRPPRLPRPRPRPPEWPRP,0.575
7,RRIRCRPPRLPRPRPRPPFCPRP,0.291
8,RRIRCRPPRLPRPRPRPPFMPRP,0.114
9,RRIRCRPPRLPRPRPRPPGWPRP,0.612
10,RRIRCRPPRLPRPRPRPPHKPRP,0.68
11,RRIRCRPPRLPRPRPRPPHNPRP,0.919
12,RRIRCRPPRLPRPRPRPPIHPRP,-0.248
13,RRIRCRPPRLPRPRPRPPIQPRP,0.369
14,RRIRCRPPRLPRPRPRPPIRPRP,0.0846
15,RRIRCRPPRLPRPRPRPPIVPRP,-0.089
16,RRIRCRPPRLPRPRPRPPLKPRP,0.353
17,RRIRCRPPRLPRPRPRPPMAPRP,0.263
18,RRIRCRPPRLPRPRPRPPMKPRP,0.242
19,RRIRCRPPRLPRPRPRPPNIPRP,-0.573
20,RRIRCRPPRLPRPRPRPPQKPRP,0.627
21,RRIRCRPPRLPRPRPRPPRKPRP,1.01
22,RRIRCRPPRLPRPRPRPPRYPRP,0.753
23,RRIRCRPPRLPRPRPRPPSDPRP,0.213
24,RRIRCRPPRLPRPRPRPPVCPRP,0.222
25,RRIRCRPPRLPRPRPRPPVPPRP,0.587

row,Sequence,shrunken log2 fold change
1,RRIRCRPPRLPRPRPRPPWDPRP,0.526
2,RRIRCRPPRLPRPRPRPPYCPRP,-0.365
3,RRIRCRPPRLPRPRPRPPYVPRP,-0.455
4,RRIRCRPPRLPRPRPRPQCWPRP,0.0604
5,RRIRCRPPRLPRPRPRPQERPRP,-0.028
6,RRIRCRPPRLPRPRPRPQESPRP,0.192
7,RRIRCRPPRLPRPRPRPQGNPRP,-0.695
8,RRIRCRPPRLPRPRPRPQGRPRP,0.445
9,RRIRCRPPRLPRPRPRPQGWPRP,-0.0139
10,RRIRCRPPRLPRPRPRPQHRPRP,-0.246
11,RRIRCRPPRLPRPRPRPQHSPRP,-0.764
12,RRIRCRPPRLPRPRPRPQHTPRP,-0.0159
13,RRIRCRPPRLPRPRPRPQISPRP,-0.785
14,RRIRCRPPRLPRPRPRPQIYPRP,-0.579
15,RRIRCRPPRLPRPRPRPQMMPRP,-0.346
16,RRIRCRPPRLPRPRPRPQMTPRP,0.218
17,RRIRCRPPRLPRPRPRPQNPPRP,-0.144
18,RRIRCRPPRLPRPRPRPQNSPRP,-0.194
19,RRIRCRPPRLPRPRPRPQPIPRP,-0.335
20,RRIRCRPPRLPRPRPRPQQAPRP,0.239
21,RRIRCRPPRLPRPRPRPQQMPRP,0.013
22,RRIRCRPPRLPRPRPRPQQWPRP,-0.0268
23,RRIRCRPPRLPRPRPRPQRAPRP,-0.012
24,RRIRCRPPRLPRPRPRPQRKPRP,0.203
25,RRIRCRPPRLPRPRPRPQVHPRP,-0.233

row,Sequence,shrunken log2 fold change
1,RRIRCRPPRLPRPRPRPQVIPRP,-0.386
2,RRIRCRPPRLPRPRPRPRDCPRP,0.313
3,RRIRCRPPRLPRPRPRPRFDPRP,0.136
4,RRIRCRPPRLPRPRPRPRFGPRP,0.316
5,RRIRCRPPRLPRPRPRPRGGPRP,0.508
6,RRIRCRPPRLPRPRPRPRGIPRP,0.094
7,RRIRCRPPRLPRPRPRPRHCPRP,0.423
8,RRIRCRPPRLPRPRPRPRHDPRP,-0.234
9,RRIRCRPPRLPRPRPRPRICPRP,0.183
10,RRIRCRPPRLPRPRPRPRIHPRP,-0.226
11,RRIRCRPPRLPRPRPRPRINPRP,-0.0891
12,RRIRCRPPRLPRPRPRPRIQPRP,-0.196
13,RRIRCRPPRLPRPRPRPRKHPRP,0.0674
14,RRIRCRPPRLPRPRPRPRKSPRP,0.126
15,RRIRCRPPRLPRPRPRPRLSPRP,0.0865
16,RRIRCRPPRLPRPRPRPRLTPRP,0.0689
17,RRIRCRPPRLPRPRPRPRQAPRP,0.00566
18,RRIRCRPPRLPRPRPRPRQFPRP,0.0823
19,RRIRCRPPRLPRPRPRPRRTPRP,0.54
20,RRIRCRPPRLPRPRPRPRSLPRP,0.197
21,RRIRCRPPRLPRPRPRPRTAPRP,0.304
22,RRIRCRPPRLPRPRPRPRTLPRP,0.209
23,RRIRCRPPRLPRPRPRPRWKPRP,0.847
24,RRIRCRPPRLPRPRPRPSAIPRP,-0.014
25,RRIRCRPPRLPRPRPRPSCWPRP,0.2

row,Sequence,shrunken log2 fold change
1,RRIRCRPPRLPRPRPRPSDCPRP,-0.387
2,RRIRCRPPRLPRPRPRPSDDPRP,0.334
3,RRIRCRPPRLPRPRPRPSDKPRP,-0.207
4,RRIRCRPPRLPRPRPRPSFQPRP,-0.384
5,RRIRCRPPRLPRPRPRPSGTPRP,-0.0132
6,RRIRCRPPRLPRPRPRPSHMPRP,-0.838
7,RRIRCRPPRLPRPRPRPSIQPRP,-0.655
8,RRIRCRPPRLPRPRPRPSKGPRP,-0.212
9,RRIRCRPPRLPRPRPRPSLKPRP,-0.23
10,RRIRCRPPRLPRPRPRPSLNPRP,-0.341
11,RRIRCRPPRLPRPRPRPSMIPRP,-0.892
12,RRIRCRPPRLPRPRPRPSNYPRP,-0.348
13,RRIRCRPPRLPRPRPRPSPMPRP,0.0865
14,RRIRCRPPRLPRPRPRPSPQPRP,0.445
15,RRIRCRPPRLPRPRPRPSRCPRP,0.137
16,RRIRCRPPRLPRPRPRPSRGPRP,0.333
17,RRIRCRPPRLPRPRPRPSRLPRP,0.0589
18,RRIRCRPPRLPRPRPRPSSIPRP,-0.565
19,RRIRCRPPRLPRPRPRPSVSPRP,-0.185
20,RRIRCRPPRLPRPRPRPSYEPRP,-0.374
21,RRIRCRPPRLPRPRPRPSYFPRP,-0.193
22,RRIRCRPPRLPRPRPRPTAQPRP,0.301
23,RRIRCRPPRLPRPRPRPTCHPRP,0.0303
24,RRIRCRPPRLPRPRPRPTCMPRP,0.173
25,RRIRCRPPRLPRPRPRPTDIPRP,-0.623

row,Sequence,shrunken log2 fold change
1,RRIRCRPPRLPRPRPRPTEGPRP,0.284
2,RRIRCRPPRLPRPRPRPTEKPRP,-0.293
3,RRIRCRPPRLPRPRPRPTLAPRP,0.645
4,RRIRCRPPRLPRPRPRPTLEPRP,0.0452
5,RRIRCRPPRLPRPRPRPTLQPRP,0.279
6,RRIRCRPPRLPRPRPRPTMRPRP,0.529
7,RRIRCRPPRLPRPRPRPTMYPRP,-0.541
8,RRIRCRPPRLPRPRPRPTNDPRP,-0.218
9,RRIRCRPPRLPRPRPRPTNEPRP,-0.213
10,RRIRCRPPRLPRPRPRPTNTPRP,-0.364
11,RRIRCRPPRLPRPRPRPTPHPRP,0.821
12,RRIRCRPPRLPRPRPRPTPLPRP,0.522
13,RRIRCRPPRLPRPRPRPTQFPRP,0.167
14,RRIRCRPPRLPRPRPRPTQLPRP,0.338
15,RRIRCRPPRLPRPRPRPTRCPRP,0.236
16,RRIRCRPPRLPRPRPRPTRPPRP,0.938
17,RRIRCRPPRLPRPRPRPTSGPRP,0.285
18,RRIRCRPPRLPRPRPRPTSIPRP,-0.343
19,RRIRCRPPRLPRPRPRPTTGPRP,-0.0721
20,RRIRCRPPRLPRPRPRPTTPPRP,0.227
21,RRIRCRPPRLPRPRPRPTVFPRP,0.197
22,RRIRCRPPRLPRPRPRPTVNPRP,-0.184
23,RRIRCRPPRLPRPRPRPTWAPRP,0.118
24,RRIRCRPPRLPRPRPRPTWNPRP,0.128
25,RRIRCRPPRLPRPRPRPTWTPRP,0.362
